# From patent US8501696 (dated 2013)
# B1: wild type sgp130Fc (Fc fusion)
# chain: ELLDPCGYISPESPVVQLHSNFTAVCVLKEKCMDYFHVNANYIVWKTNHFTIPKEQYTIINRTASSVTFTDIASLNIQLTCNILTFGQLEQNVYGITIISGLPPEKPKNLSCIVNEGKKMRCEWDGGRETHLETNFTLKSEWATHKFADCKAKRDTPTSCTVDYSTVYFVNIEVWVEAENALGKVTSDHINFDPVYKVKPNPPHNLSVINSEELSSILKLTWTNPSIKSVIILKYNIQYRTKDASTWSQIPPEDTASTRSSFTVQDLKPFTEYVFRIRCMKEDGKGYWSDWSEEASGITYEDRPSKAPSFWYKIDPSHTQGYRTVQLVWKTLPPFEANGKILDYEVTLTRWKSHLQNYTVNATKLTVNLTNDRYLATLTVRNLVGKSDAAVLTIPACDFQATHPVMDLKAFPKDNMLWVEWTTPRESVKKYILEWCVLSDKAPCITDWQQEDGTVHRTYLRGNLAESKCYLITVTPVYADGPGSPESIKAYLKQAPPSKGPTVRTKKVGKNEAVLEWDQLPVDVQNGFIRNYTIFYRTIIGNETAVNVDSSHTEYTLSSLTSDTLYMVRMAAYTDEGGKDGPEFTFTTPKFAQGEIE
# Biological target: Hyper-IL-6 (designer cytokine consisting of covalently linked IL-6 and sIL-6R) (human, UniProt P08887 20-323; P05231 30-212)
# Assay: SPR
# Chain of Hyper-IL-6 (designer cytokine consisting of covalently linked IL-6 and sIL-6R) (P08887 20-323, chain 1 of 2): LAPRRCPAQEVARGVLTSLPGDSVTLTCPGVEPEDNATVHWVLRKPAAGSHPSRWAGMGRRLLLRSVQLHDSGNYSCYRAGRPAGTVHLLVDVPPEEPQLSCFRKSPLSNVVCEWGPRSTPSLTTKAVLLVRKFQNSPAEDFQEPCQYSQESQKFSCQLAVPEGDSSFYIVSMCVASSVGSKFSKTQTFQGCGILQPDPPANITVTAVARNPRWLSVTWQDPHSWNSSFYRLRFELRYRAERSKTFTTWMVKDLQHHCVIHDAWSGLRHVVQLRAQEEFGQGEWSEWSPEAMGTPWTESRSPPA
# Chain of Hyper-IL-6 (designer cytokine consisting of covalently linked IL-6 and sIL-6R) (P05231 30-212, chain 2 of 2): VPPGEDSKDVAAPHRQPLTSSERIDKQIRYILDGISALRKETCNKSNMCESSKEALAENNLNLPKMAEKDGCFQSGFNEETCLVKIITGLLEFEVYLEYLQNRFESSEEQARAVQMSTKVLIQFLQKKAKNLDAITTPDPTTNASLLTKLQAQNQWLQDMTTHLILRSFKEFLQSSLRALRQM
binder,measurement,value
B1,Kd,0.499 nM
